First the molecules themselves.
B1: OR4K15 (parent)
chain: GUUAACGGUCAUAGGCCAUGGAAACUAGGAGCACCAUUUCGCUGCCAGUGAAGAAAUGAACAAAGAAAAUCUGGGCCAGGCAGGCAUCAAAAGAAAUAGUCUUGCGCUCAACCAGAAAGUCUGUAAUCAUUUUAAGGGUA

167 variants from the RNAGym collection of RNA variant scans (doi:10.7554/elife.90254) can be followed below.

The variants in this data set derive from B1. As to the kind of experiment: self-cleavage, relative activity (ratio to wild type); higher = more cleavage; in vitro, sequencing; the parent is a self-cleaving ribozyme.
Regarding U12C A68G, the self-cleavage was 1.21.

Regarding U9C U70A, the self-cleavage is 0.97.

U9C U70C: the self-cleavage is 0.77.

As for A11U U12C, the self-cleavage turned out to be 0.97.

For U12C A95G, the self-cleavage came to 1.57.

On to A11U A98U, for which the self-cleavage was determined as 1.82.

Take U9C U131A: the self-cleavage worked out at 1.8.

Consider U9C U19A, for which the self-cleavage was determined as 1.65.

On to U9C U19C, for which the self-cleavage came out at 1.77.

For A11U U139C, the self-cleavage turned out to be 1.23.

On to A11G U49A, for which the self-cleavage was determined as 0.88.

As for A11G U49G, the self-cleavage came out at 1.21.

As to A11G G79A, the self-cleavage is 0.16.

With U12A A59U, the self-cleavage was found to be 0.95.

For U9G A89U, the self-cleavage came to 1.03.

A11U U108C: the self-cleavage was found to be 0.01.

Turning to A11U U108A, the self-cleavage turned out to be 0.02.

On to A11U A135U, for which the self-cleavage worked out at 0.98.

In the case of C10U G104A, the self-cleavage turned out to be 0.06.

Turning to C10U A90C, the self-cleavage turned out to be 0.97.

Turning to A11G A67U, the self-cleavage was determined as 1.16.

Consider A11G A67G, for which the self-cleavage was 0.74.

Turning to A11U U49A, the self-cleavage worked out at 0.68.

For A11U U49G, the self-cleavage was 1.14.

As to A11U G84A, the self-cleavage was 2.42.

For A11U A18U, the self-cleavage came out at 1.82.

As for U9G A91C, the self-cleavage was determined as 0.6.

Take U9C C81U: the self-cleavage worked out at 0.36.

As to A11U A129U, the self-cleavage worked out at 0.64.

As to A11U A129G, the self-cleavage is 1.27.

In the case of A11G G119A, the self-cleavage stood at 2.11.

As to U9G A129G, the self-cleavage turned out to be 0.65.

As for C10U A86G, the self-cleavage was determined as 0.7.

For U9G A69G, the self-cleavage was found to be 1.

Regarding A11C A114U, the self-cleavage was found to be 0.09.

Take U12A U102C: the self-cleavage amounted to 1.73.

U9C G123A: the self-cleavage turned out to be 2.14.

Take A11C A78G: the self-cleavage stood at 0.18.

On to A11G A22U, for which the self-cleavage turned out to be 1.75.

For U9C U87A, the self-cleavage stood at 1.98.

For U9C U87C, the self-cleavage was determined as 0.96.

U9C U87G: the self-cleavage was determined as 0.69.

In the case of A11U A67G, the self-cleavage was 1.5.

For A11U A23U, the self-cleavage turned out to be 0.71.

On to U12A A24G, for which the self-cleavage was found to be 0.69.

Regarding A11U A63U, the self-cleavage came to 1.56.

As to U9C C85U, the self-cleavage stood at 1.44.

Regarding A11C U127C, the self-cleavage worked out at 0.83.

Consider A11U A82U, for which the self-cleavage was 0.31.

Regarding A11U U103C, the self-cleavage came out at 0.73.

In the case of U9G U130C, the self-cleavage stood at 0.7.

As for U9C C17U, the self-cleavage is 1.8.

Turning to U9C G115C, the self-cleavage worked out at 0.11.

On to A11C U131C, for which the self-cleavage is 0.89.

On to A11G U37C, for which the self-cleavage worked out at 1.16.

In the case of C10U U100C, the self-cleavage is 2.44.

U12C A23U: the self-cleavage was 0.97.

For U12A U103C, the self-cleavage stood at 0.14.

Regarding U12C A126U, the self-cleavage turned out to be 0.52.

Take U12C A126C: the self-cleavage amounted to 0.42.

Regarding U9C A114U, the self-cleavage amounted to 0.1.

Consider U9C C105U, for which the self-cleavage came out at 0.14.

Turning to U12A U72A, the self-cleavage turned out to be 0.36.

Consider A11U U37C, for which the self-cleavage turned out to be 1.01.

As to A11G A116G, the self-cleavage turned out to be 0.92.

In the case of A11G A116U, the self-cleavage was determined as 0.12.

In the case of A11C U102C, the self-cleavage worked out at 1.91.

For the variant C10U U37C, the self-cleavage came out at 1.65.

In the case of U9C A117U, the self-cleavage came to 1.04.

Turning to U9C A117G, the self-cleavage came out at 1.91.

On to A11G A47U, for which the self-cleavage worked out at 0.98.

As to A11G A18G, the self-cleavage was 1.36.

Regarding A11G A18U, the self-cleavage turned out to be 0.46.

In the case of U9C U120C, the self-cleavage amounted to 1.66.

For the variant U12A A140G, the self-cleavage worked out at 1.5.

Take A11G A126G: the self-cleavage is 0.39.

Regarding C10A U37C, the self-cleavage is 1.

With C10A U37G, the self-cleavage came out at 0.71.

With A11G G73A, the self-cleavage is 0.14.

Turning to A11G A129U, the self-cleavage is 0.45.

With A11G A129G, the self-cleavage was found to be 0.83.

For U9C U132A, the self-cleavage was 1.85.

Turning to A11C A24G, the self-cleavage turned out to be 1.94.

Take A11G C32G: the self-cleavage came out at 0.61.

For U9G A59G, the self-cleavage was determined as 1.

U9C A110U: the self-cleavage turned out to be 1.32.

With U9C A110C, the self-cleavage was determined as 0.45.

In the case of U12C A47U, the self-cleavage was found to be 0.93.

Take A11U G58U: the self-cleavage amounted to 0.86.

Regarding A11G U127C, the self-cleavage was found to be 0.63.

On to U9C U102C, for which the self-cleavage worked out at 2.15.

For U9C U102A, the self-cleavage was 1.31.

For U9C G74U, the self-cleavage came to 0.15.

Turning to C10U U38A, the self-cleavage was determined as 0.84.

For A11G A33C, the self-cleavage is 1.98.

Take A11G A33G: the self-cleavage is 0.84.

With U12C A66G, the self-cleavage is 0.97.

With U9C U37C, the self-cleavage came to 1.57.

As to C10U U120C, the self-cleavage is 1.12.

As for U12A A52U, the self-cleavage turned out to be 1.23.

For U12A A116G, the self-cleavage worked out at 0.49.

A11U C16U: the self-cleavage worked out at 2.22.

For the variant C10U U39A, the self-cleavage stood at 0.81.

Consider U9C C109G, for which the self-cleavage stood at 0.04.

For U9C C109A, the self-cleavage came out at 0.49.

In the case of A11U A78G, the self-cleavage worked out at 0.31.

As to A11U A78U, the self-cleavage is 0.49.

For the variant A11G U131G, the self-cleavage stood at 1.52.

A11G A63G: the self-cleavage came to 1.1.

Consider A11G A63C, for which the self-cleavage is 0.97.

For the variant A11U A125G, the self-cleavage is 1.3.

With U12C A30U, the self-cleavage is 1.21.

As for U12C A30G, the self-cleavage was determined as 1.28.

As for C10U A68G, the self-cleavage amounted to 0.34.

As for A11C U43C, the self-cleavage was found to be 2.23.

Turning to A11G G48A, the self-cleavage came to 1.9.

As for A11G C71G, the self-cleavage was found to be 0.34.

On to U12C A94U, for which the self-cleavage amounted to 1.8.

With U9G A118G, the self-cleavage is 0.91.

On to A11G A114U, for which the self-cleavage is 0.15.

On to A11G A27G, for which the self-cleavage is 1.1.

Regarding U12A A135G, the self-cleavage came out at 1.47.

On to U12A A135U, for which the self-cleavage worked out at 1.29.

Regarding A11C A82U, the self-cleavage amounted to 0.36.

U12C A82G: the self-cleavage came to 0.76.

With U12C A18U, the self-cleavage stood at 1.3.

Take U12C A18G: the self-cleavage came to 0.87.

Turning to A11G U102A, the self-cleavage stood at 0.58.

Regarding U12A A95G, the self-cleavage worked out at 1.29.

Consider A11G A82G, for which the self-cleavage turned out to be 0.55.

As for A11G U43C, the self-cleavage came out at 0.92.

Consider A11G U43G, for which the self-cleavage was determined as 1.18.

A11G U43A: the self-cleavage came to 1.12.

Consider C10G A60G, for which the self-cleavage was 0.77.

For the variant U12A U131C, the self-cleavage amounted to 2.37.

As to A11G A69G, the self-cleavage stood at 0.99.

Regarding A11G A69U, the self-cleavage amounted to 1.

For U9C G48A, the self-cleavage amounted to 0.64.

Take A11G A62G: the self-cleavage is 1.11.

In the case of U12A C34U, the self-cleavage was 0.53.

On to A11G A23G, for which the self-cleavage came out at 1.1.

With U12C A59U, the self-cleavage is 0.65.

Regarding U9C C16U, the self-cleavage came out at 1.59.

On to C10U U57C, for which the self-cleavage was 1.03.

For U9C G41U, the self-cleavage was determined as 1.55.

As to A11U A22G, the self-cleavage was 1.53.

With A11C A13U, the self-cleavage came out at 1.09.

On to A11U U102A, for which the self-cleavage came to 0.7.

For the variant A11G A56G, the self-cleavage was determined as 0.35.

Turning to A11G U39A, the self-cleavage was found to be 0.88.

For the variant A11U A64G, the self-cleavage was 1.56.

For U12A A22C, the self-cleavage was determined as 1.51.

U9C G29A: the self-cleavage was 2.15.

In the case of A11U A51G, the self-cleavage came to 1.48.

In the case of U9C U108A, the self-cleavage turned out to be 0.04.

Consider U9C C61U, for which the self-cleavage was found to be 2.27.

As to A11U A47U, the self-cleavage is 0.96.

For the variant U12C A90G, the self-cleavage amounted to 0.97.

In the case of A11G U100C, the self-cleavage amounted to 1.06.

Take A11G A64U: the self-cleavage was 0.97.

In the case of A11G A64G, the self-cleavage was 1.3.

In the case of U9C U12A, the self-cleavage turned out to be 1.59.

For the variant U9C U12C, the self-cleavage came out at 1.27.

As for U12A A94G, the self-cleavage was 1.12.

For A11G U72C, the self-cleavage is 0.21.

With U12C A111G, the self-cleavage came to 0.03.

As to A11C A110U, the self-cleavage was 1.76.
